Bridges are numbered along the chain shown (N, C = ends). Where no end group is shown, it is not given here.

In publication PMC11950852, “Diversity Scale of Library Matters: Impact of mRNA Library Diversity Scales on the Discovery of Macrocyclic Peptides Targeting a Protein by the RaPID System” (ACS Central Science, 2025) one finds Kd and koff data, which are given here for 12 molecules.

For assay [1], the target named is T1, ectodomain of MET (hepatocyte growth factor receptor) fused to Fc (UniProt P08581 25-932).
T1 construct: MET, hepatocyte growth factor receptor, a receptor tyrosine kinase; ectodomain; also called MET-Fc; Fc-tagged MET
The experiment in a line: SPR; macrocyclic peptides on MET; concentration-dependent sensorgrams fitted by a 1:1 binding model. Conditions: both partners purified.

Assay [2] concerns the target T2, ectodomain of MET fused to Fc (UniProt P08581 25-932).
T2 chain: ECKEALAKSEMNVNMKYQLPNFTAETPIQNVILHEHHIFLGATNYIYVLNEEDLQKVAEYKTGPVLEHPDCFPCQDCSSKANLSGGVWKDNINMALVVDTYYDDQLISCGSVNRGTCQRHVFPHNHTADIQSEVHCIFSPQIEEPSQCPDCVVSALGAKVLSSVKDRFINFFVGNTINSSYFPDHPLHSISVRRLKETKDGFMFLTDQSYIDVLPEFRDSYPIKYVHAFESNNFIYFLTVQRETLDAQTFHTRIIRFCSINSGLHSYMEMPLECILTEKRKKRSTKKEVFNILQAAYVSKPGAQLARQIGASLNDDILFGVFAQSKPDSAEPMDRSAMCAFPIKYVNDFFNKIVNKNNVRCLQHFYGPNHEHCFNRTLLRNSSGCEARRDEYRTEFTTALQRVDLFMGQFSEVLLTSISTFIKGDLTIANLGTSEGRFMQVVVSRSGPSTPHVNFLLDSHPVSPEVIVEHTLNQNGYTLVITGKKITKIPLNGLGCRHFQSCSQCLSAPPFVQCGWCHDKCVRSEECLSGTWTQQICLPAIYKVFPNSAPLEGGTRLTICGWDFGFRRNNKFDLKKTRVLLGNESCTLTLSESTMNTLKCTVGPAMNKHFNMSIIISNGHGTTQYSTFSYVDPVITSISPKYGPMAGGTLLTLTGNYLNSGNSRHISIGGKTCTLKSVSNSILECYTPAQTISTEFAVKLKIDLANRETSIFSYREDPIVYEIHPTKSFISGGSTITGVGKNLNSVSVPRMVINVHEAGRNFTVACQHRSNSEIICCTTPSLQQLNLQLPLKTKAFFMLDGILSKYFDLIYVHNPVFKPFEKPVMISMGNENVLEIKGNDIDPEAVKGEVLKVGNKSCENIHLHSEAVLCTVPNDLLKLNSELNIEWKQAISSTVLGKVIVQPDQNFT
The experiment in a line: SPR. In general terms: Surface plasmon resonance follows binding to a sensor surface in real time, without labels.

For assay [3], the target named is T2, ectodomain of MET fused to Fc. The experiment in a line: SPR.
In assay [4] the target is T3, ectodomain of MET fused to Fc (UniProt P08581 25-932).
T3 construct: MET (hepatocyte growth factor receptor), a receptor tyrosine kinase; also called MET-Fc; Fc-tagged MET
The assay is described as follows: SPR; fitted by a 1:1 binding model; who was immobilised and the conditions are in the Supporting Information (not shown). The conditions noted are these: both partners purified.

B1: macrocyclic peptide 10-2 (peptide)
chain: {CH2CO}-YWYYTFDGRWKEYGAACG-NH2
modifications: thioether N-17
SMILES: C[C@@H]1NC(=O)CNC(=O)[C@H](Cc2ccc(O)cc2)NC(=O)[C@H](CCC(=O)O)NC(=O)[C@H](CCCCN)NC(=O)[C@H](Cc2c[nH]c3ccccc23)NC(=O)[C@H](CCCNC(=N)N)NC(=O)CNC(=O)[C@H](CC(=O)O)NC(=O)[C@H](Cc2ccccc2)NC(=O)[C@H]([C@@H](C)O)NC(=O)[C@H](Cc2ccc(O)cc2)NC(=O)[C@H](Cc2ccc(O)cc2)NC(=O)[C@H](Cc2c[nH]c3ccccc23)NC(=O)[C@H](Cc2ccc(O)cc2)NC(=O)CSC[C@@H](C(=O)NCC(N)=O)NC(=O)[C@H](C)NC1=O
As a reminder, the Kd is the free concentration of one partner at which half of the binding sites on the other are occupied at equilibrium, for simple one-to-one binding. A low value points to a tighter complex. Consider B1, for which the Kd in assay [1] amounted to 31 nM. That is a double-digit nanomolar value.

B2: 12–5 (peptide)
chain: {CH2CO}-YLVWHEYDSKKWYFSLCG-NH2
modifications: thioether N-17
SMILES: CC(C)C[C@@H]1NC(=O)[C@H](CO)NC(=O)[C@H](Cc2ccccc2)NC(=O)[C@H](Cc2ccc(O)cc2)NC(=O)[C@H](Cc2c[nH]c3ccccc23)NC(=O)[C@H](CCCCN)NC(=O)[C@H](CCCCN)NC(=O)[C@H](CO)NC(=O)[C@H](CC(=O)O)NC(=O)[C@H](Cc2ccc(O)cc2)NC(=O)[C@H](CCC(=O)O)NC(=O)[C@H](Cc2c[nH]cn2)NC(=O)[C@H](Cc2c[nH]c3ccccc23)NC(=O)[C@H](C(C)C)NC(=O)[C@H](CC(C)C)NC(=O)[C@H](Cc2ccc(O)cc2)NC(=O)CSC[C@@H](C(=O)NCC(N)=O)NC1=O
For orientation: koff means a measure of how fast the partners let go of each other. Read a low koff as slow dissociation. Consider B2, for which, in assay [2], the off-rate constant (koff) was determined as 0.002 s⁻¹. Moreover, in assay [3], the Kd was found to be 15.4 nM.

B3: macrocyclic peptide 10-6 (peptide)
chain: {CH2CO}-YWWYYWYRDEYLWRTRCG-NH2
modifications: thioether N-17
SMILES: CC(C)C[C@@H]1NC(=O)[C@H](Cc2ccc(O)cc2)NC(=O)[C@H](CCC(=O)O)NC(=O)[C@H](CC(=O)O)NC(=O)[C@H](CCCNC(=N)N)NC(=O)[C@H](Cc2ccc(O)cc2)NC(=O)[C@H](Cc2c[nH]c3ccccc23)NC(=O)[C@H](Cc2ccc(O)cc2)NC(=O)[C@H](Cc2ccc(O)cc2)NC(=O)[C@H](Cc2c[nH]c3ccccc23)NC(=O)[C@H](Cc2c[nH]c3ccccc23)NC(=O)[C@H](Cc2ccc(O)cc2)NC(=O)CSC[C@@H](C(=O)NCC(N)=O)NC(=O)[C@H](CCCNC(=N)N)NC(=O)[C@H]([C@@H](C)O)NC(=O)[C@H](CCCNC(=N)N)NC(=O)[C@H](Cc2c[nH]c3ccccc23)NC1=O
As to B3, the Kd in assay [1] turned out to be 219 nM.

B4: 14–1 (peptide)
chain: {CH2CO}-YWVYGFGKLNNDWRAFCG
modifications: thioether N-17 (inferred)
In the case of B4, the koff in assay [2] worked out at 0.000739 s⁻¹. For the same molecule, the Kd in assay [3] was 2.87 nM.

B5: macrocyclic peptide 10-4 (peptide)
chain: {CH2CO}-YIEWNRFNSKLWNCNCCG-NH2
modifications: thioether N-17; cysteine pairing not given here
For B5, the Kd in assay [1] turned out to be 308 nM.

B6: 14–3 (peptide)
chain: {CH2CO}-YLSWSEFDSKNWSLAYCG-NH2
modifications: thioether N-17
SMILES: CC(C)C[C@@H]1NC(=O)[C@H](CO)NC(=O)[C@H](Cc2c[nH]c3ccccc23)NC(=O)[C@H](CC(N)=O)NC(=O)[C@H](CCCCN)NC(=O)[C@H](CO)NC(=O)[C@H](CC(=O)O)NC(=O)[C@H](Cc2ccccc2)NC(=O)[C@H](CCC(=O)O)NC(=O)[C@H](CO)NC(=O)[C@H](Cc2c[nH]c3ccccc23)NC(=O)[C@H](CO)NC(=O)[C@H](CC(C)C)NC(=O)[C@H](Cc2ccc(O)cc2)NC(=O)CSC[C@@H](C(=O)NCC(N)=O)NC(=O)[C@H](Cc2ccc(O)cc2)NC(=O)[C@H](C)NC1=O
As to B6, the koff in assay [2] came to 0.00297 s⁻¹. The molecule further registered a Kd in assay [3] of 35 nM.

B7: 12–1 (peptide)
chain: {CH2CO}-YISWFAYASKDWFVRPCG-NH2
modifications: thioether N-17
SMILES: CC[C@H](C)[C@@H]1NC(=O)[C@H](Cc2ccc(O)cc2)NC(=O)CSC[C@@H](C(=O)NCC(N)=O)NC(=O)[C@@H]2CCCN2C(=O)[C@H](CCCNC(=N)N)NC(=O)[C@H](C(C)C)NC(=O)[C@H](Cc2ccccc2)NC(=O)[C@H](Cc2c[nH]c3ccccc23)NC(=O)[C@H](CC(=O)O)NC(=O)[C@H](CCCCN)NC(=O)[C@H](CO)NC(=O)[C@H](C)NC(=O)[C@H](Cc2ccc(O)cc2)NC(=O)[C@H](C)NC(=O)[C@H](Cc2ccccc2)NC(=O)[C@H](Cc2c[nH]c3ccccc23)NC(=O)[C@H](CO)NC1=O
B7 yielded a koff in assay [4] of 0.00254 s⁻¹. In addition, the affinity in assay [3], expressed as Kd, was 32 nM.

B8: 6–2 (peptide)
chain: {CH2CO}-YFYYNWTNVAKWAKTLCG
modifications: thioether N-17 (inferred)
In assay [4], B8 displayed a koff of 0.0074 s⁻¹. In assay [3], this molecule yielded a Kd of 102 nM.

B9: 12–4 (peptide)
chain: {CH2CO}-YNCLWVECKIVLPNGRCG
modifications: disulfide 8-17; thioether N-3
Regarding B9, in assay [4], the koff came out at 0.00721 s⁻¹. Besides, the Kd in assay [3] stood at 15.8 nM.

B10: 14–2 (peptide)
chain: {CH2CO}-YYSWSGKDVDSVIWNNCG-NH2
modifications: thioether N-17
SMILES: CC[C@H](C)[C@@H]1NC(=O)[C@H](C(C)C)NC(=O)[C@H](CO)NC(=O)[C@H](CC(=O)O)NC(=O)[C@H](C(C)C)NC(=O)[C@H](CC(=O)O)NC(=O)[C@H](CCCCN)NC(=O)CNC(=O)[C@H](CO)NC(=O)[C@H](Cc2c[nH]c3ccccc23)NC(=O)[C@H](CO)NC(=O)[C@H](Cc2ccc(O)cc2)NC(=O)[C@H](Cc2ccc(O)cc2)NC(=O)CSC[C@@H](C(=O)NCC(N)=O)NC(=O)[C@H](CC(N)=O)NC(=O)[C@H](CC(N)=O)NC(=O)[C@H](Cc2c[nH]c3ccccc23)NC1=O
As for B10, the koff in assay [2] was found to be 0.00182 s⁻¹. This molecule also returned a Kd in assay [3] of 3.93 nM.

B11: 14–4 (peptide)
chain: {CH2CO}-YYSWTGRDFDAVKWNKCG-NH2
modifications: thioether N-17
SMILES: CC(C)[C@@H]1NC(=O)[C@H](C)NC(=O)[C@H](CC(=O)O)NC(=O)[C@H](Cc2ccccc2)NC(=O)[C@H](CC(=O)O)NC(=O)[C@H](CCCNC(=N)N)NC(=O)CNC(=O)[C@H]([C@@H](C)O)NC(=O)[C@H](Cc2c[nH]c3ccccc23)NC(=O)[C@H](CO)NC(=O)[C@H](Cc2ccc(O)cc2)NC(=O)[C@H](Cc2ccc(O)cc2)NC(=O)CSC[C@@H](C(=O)NCC(N)=O)NC(=O)[C@H](CCCCN)NC(=O)[C@H](CC(N)=O)NC(=O)[C@H](Cc2c[nH]c3ccccc23)NC(=O)[C@H](CCCCN)NC1=O
B11 displayed a koff in assay [2] of 0.00198 s⁻¹. In assay [3], this molecule showed a Kd of 2.49 nM.

B12: macrocyclic peptide 10-5 (peptide)
chain: {CH2CO}-YLLWHKYDNKDWVYVDCG-NH2
modifications: thioether N-17
SMILES: CC(C)C[C@@H]1NC(=O)[C@H](Cc2ccc(O)cc2)NC(=O)CSC[C@@H](C(=O)NCC(N)=O)NC(=O)[C@H](CC(=O)O)NC(=O)[C@H](C(C)C)NC(=O)[C@H](Cc2ccc(O)cc2)NC(=O)[C@H](C(C)C)NC(=O)[C@H](Cc2c[nH]c3ccccc23)NC(=O)[C@H](CC(=O)O)NC(=O)[C@H](CCCCN)NC(=O)[C@H](CC(N)=O)NC(=O)[C@H](CC(=O)O)NC(=O)[C@H](Cc2ccc(O)cc2)NC(=O)[C@H](CCCCN)NC(=O)[C@H](Cc2c[nH]cn2)NC(=O)[C@H](Cc2c[nH]c3ccccc23)NC(=O)[C@H](CC(C)C)NC1=O
B12 yielded an equilibrium dissociation constant (Kd) in assay [1] of 19.5 nM. In addition, the koff in assay [2] turned out to be 0.00694 s⁻¹.
